Residue numbers refer to the chain shown, from its start. Numbers in names are those of the source.
Assays:
Test in all cases: flow cytometry titration on CHO-K1 cells transiently expressing the HA-tagged TIGIT mutant, Alexa488 anti-human IgG detection, four-parameter fit of percent of control, nM is from the concentration axis and paragraph 252
[1] = biological target: T1, HA-tagged human TIGIT with mutation N37A, on CHO-K1 cells (human, UniProt Q495A1 22-244)
T1 construct: Built as for m17
T1 sequence: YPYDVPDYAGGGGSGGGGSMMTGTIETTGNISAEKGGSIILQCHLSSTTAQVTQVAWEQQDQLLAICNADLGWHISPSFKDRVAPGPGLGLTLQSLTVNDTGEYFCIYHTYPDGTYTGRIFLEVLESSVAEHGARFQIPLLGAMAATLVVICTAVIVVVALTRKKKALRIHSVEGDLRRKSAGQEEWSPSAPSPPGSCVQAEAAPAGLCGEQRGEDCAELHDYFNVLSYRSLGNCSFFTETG
Method: (§1) For flow cytometry analysis of the anti-hTIGIT antibody binding epitope, HA-tagged human TIGIT proteins with or without single amino acid mutation were transiently transfected into CHO-K1 cells. After 24 hr, transfected cells were suspended in HBSS buffer (Thermo Fisher Scientific, Cat#14175095), and incubated with HuTIG1-IgG1.AA antibody at varying concentrations in 50 μL volume. After 1 hr incubation at 4° C., cells were washed and a second incubation with 50 μL Alexa488 conjugated anti-human IgG(H+L) secondary antibody (Thermo Fisher Scientific, Cat#A-11013) was performed to detect cells bound by antibody. Cells were incubated with an anti-HA antibody (Sigma, Cat# H7411) as a positive control, and non-transfected CHO-K1 cells were used as a negative control. The cells were analyzed on an Attune NxT Cytometer (Thermo Fisher Scientific) and the data were processed using FlowJo software. For each mutant, the saturating antibody binding MFI (mean fluorescence intensity) were normalized to 100% POC (percent of control), and no primary antibody binding control MFI were normalized to 0% POC. Data were then fit to a four parameter non-linear sigmoidal curve using GraphPad Prism 7 curve fitting using following formula: Y=Bottom+(Top−Bottom)/(1+10^{((Log EC}^₅₀^{-X)*HillSlope)}).
(§2) All of these residues co-locate to one discrete region on the front ([…] structure of the TIGIT IgV extracellular domain (FIG. 28).

[2] = biological target: T2, I47A
T2 construct: also called HA-tagged human TIGIT with mutation I47A, on CHO-K1 cells
T2 single chain: T1 sequence with A56N, I66A
Method: as §1, §2

[3] = biological target: T3, HA-tagged human TIGIT with mutation H90A, on CHO-K1 cells (human, UniProt Q495A1 22-244)
T3 construct: Built as for m17
T3 sequence: T1 sequence with A56N, H109A
Method: as §1, §2

[4] = biological target: T4, E39A
T4 construct: also called HA-tagged human TIGIT with mutation E39A, on CHO-K1 cells
T4 single chain: T1 sequence with A56N, E58A
Method: as §1, §2

[5] = biological target: T5, F86A
T5 construct: also called HA-tagged human TIGIT with mutation F86A, on CHO-K1 cells
T5 single chain: T1 sequence with A56N, F105A
Method: as §1, §2

[6] = biological target: T6, L44A
T6 construct: also called HA-tagged human TIGIT with mutation L44A, on CHO-K1 cells
T6 single chain: T1 sequence with A56N, L63A
Method: as §1, §2

B1: HuTIG1-IgG1.AA (humanized IgG1/kappa form of TIG1, L234A/L235A) (antibody)
heavy: not shown
light: DIQMTQSPSSLSASVGDRVTITCRASKSISKYLAWYQQKPGKAPKLLIYSGSTLQSGVPSRFSGSGSGTDFTLTISSLQPEDFATYYCQQHNEYPWTFGGGTKVEIKRTVAAPSVFIFPPSDEQLKSGTASVVCLLNNFYPREAKVQWKVDNALQSGNSQESVTEQDSKDSTYSLSSTLTLSKADYEKHKVYACEVTHQGLSSPVTKSFNRGEC
notes: Mature full chains; also called humanized TIG1
EC50 [1]: 126 nM
EC50 [2]: 1.27 nM
EC50 [3]: 104 nM
EC50 [4]: 1.58 nM
EC50 [5]: 0.844 nM
EC50 [6]: 1.23 nM

— US20170281764A1 (JN BIOSCIENCES, published 2017)
